Positions count from the first letter of the chain named.
Tests used:
Test in all cases: two-hybrid; LexA-Cdc1 bait (pBTM116 or pBTM116BN) with Gal4 activation domain-Cdc27 prey (pGAD2F-Cdc27) in S. cerevisiae CTY10-5d; ONPG liquid culture beta-galactosidase assay, mean of triplicates, as percent of wild-type Cdc1
Settings in all cases: partners not purified
Cdc1-J10 = target: T1, Cdc1-J10 (Schizosaccharomyces pombe, UniProt P87324 1-462, Tyr-ArgGlyThrProTyr-Met)
T1 construct: Cdc1, S. pombe, with a pentapeptide inserted after residue 77; also called J11; E6; source: yeast two-hybrid fusion, in S. cerevisiae CTY10-5d
T1 sequence (looked up): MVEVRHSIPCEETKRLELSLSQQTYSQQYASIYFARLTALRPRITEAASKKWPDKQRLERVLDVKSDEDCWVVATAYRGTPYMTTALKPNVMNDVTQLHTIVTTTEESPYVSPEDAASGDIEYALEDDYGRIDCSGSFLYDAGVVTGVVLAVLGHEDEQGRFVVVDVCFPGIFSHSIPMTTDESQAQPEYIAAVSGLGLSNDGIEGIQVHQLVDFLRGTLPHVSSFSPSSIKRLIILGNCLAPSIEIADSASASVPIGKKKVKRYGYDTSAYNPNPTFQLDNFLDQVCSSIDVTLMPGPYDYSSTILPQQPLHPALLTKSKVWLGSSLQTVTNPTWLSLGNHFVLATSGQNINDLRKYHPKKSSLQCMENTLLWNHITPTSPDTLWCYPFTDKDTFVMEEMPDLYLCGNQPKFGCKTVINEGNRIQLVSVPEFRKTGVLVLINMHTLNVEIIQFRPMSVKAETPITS

Cdc1-A3 = target: T2, Cdc1-A3 (Schizosaccharomyces pombe, UniProt P87324 1-462, Asp296Ala)
T2 construct: Cdc1, S. pombe, point mutant; source: yeast two-hybrid fusion, in S. cerevisiae CTY10-5d
T2 sequence (looked up): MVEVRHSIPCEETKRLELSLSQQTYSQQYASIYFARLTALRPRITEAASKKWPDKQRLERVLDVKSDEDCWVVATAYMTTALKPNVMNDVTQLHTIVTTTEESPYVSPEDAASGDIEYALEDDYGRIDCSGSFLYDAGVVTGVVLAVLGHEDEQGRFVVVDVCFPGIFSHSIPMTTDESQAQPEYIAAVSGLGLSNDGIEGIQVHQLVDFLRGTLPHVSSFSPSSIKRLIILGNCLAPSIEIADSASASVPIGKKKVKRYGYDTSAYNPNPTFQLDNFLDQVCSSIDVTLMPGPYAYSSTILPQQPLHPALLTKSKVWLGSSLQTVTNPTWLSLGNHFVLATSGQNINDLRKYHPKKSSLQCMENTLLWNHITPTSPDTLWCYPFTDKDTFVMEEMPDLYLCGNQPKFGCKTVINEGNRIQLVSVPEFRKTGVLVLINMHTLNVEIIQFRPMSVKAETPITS

Cdc1-A6 = target: T3, Cdc1-A6 (Schizosaccharomyces pombe, UniProt P87324 1-462, Pro329Ala)
T3 construct: Cdc1, S. pombe, point mutant; source: yeast two-hybrid fusion, in S. cerevisiae CTY10-5d
T3 sequence (looked up): T2 sequence (looked up) with A296D, P329A

Cdc1-A10 = target: T4, Cdc1-A10 (Schizosaccharomyces pombe, UniProt P87324 1-462, Asn328Ala | Pro329Ala)
T4 construct: Cdc1, S. pombe, double point mutant (A5 and A6 combined); source: yeast two-hybrid fusion, in S. cerevisiae CTY10-5d
T4 sequence (looked up): T2 sequence (looked up) with A296D, N328A, P329A

two-hybrid beta-galactosidase activity, % of wild-type Cdc1 (Cdc1-J10): 30%
two-hybrid beta-galactosidase activity, % of wild-type Cdc1 (Cdc1-A3): 23%
two-hybrid beta-galactosidase activity, % of wild-type Cdc1 (Cdc1-A6): 6%
two-hybrid beta-galactosidase activity, % of wild-type Cdc1 (Cdc1-A10): 72%
B1: Cdc27 (fission yeast DNA polymerase delta C-subunit) (natural protein, Schizosaccharomyces pombe, UniProt P30261 1-372, looked up)
chain: MEEWRNFLDIKVINESSLVTVDNLSLQLDISSEKAQEYLNMFYQGNDFLYPIYLIHGQPIDDEINLEIDEESQPISNFPVLQYILCDKSSLQEKQSRLKSGYKTVIFALSSAPLSDFDELLPAVYEIREKDVLYKKEDADKYGFIFNENSVPRVLKKAPSTHSPQLSVPSKTSTIDKTDTRSTEKTKGKDIFSNARNQKGNSSRKNKKAPLENHKEKEPLLPKEEKLSEQAKRERDDLKNIMQLEDESVSTTSVHDSEDDNLDSNNFQLEIGTEAKSAAPDEPQEIIKSVSGGKRRGKRKVKKYATTKDEEGFLVTKEEEVWESFSEDENISTGTSNVVRNKPTTVNIATKKKNTAQSKPQQKSIMSFFGKK
notes: DNA polymerase delta C-subunit Cdc27, S. pombe; prey plasmid pGAD2F-Cdc27; also called pGAD2F-Cdc27; source: yeast two-hybrid fusion, in S. cerevisiae CTY10-5d

Reference: publication PMC2734569, “Functional mapping of the fission yeast DNA polymerase δ B-subunit Cdc1 by site-directed and random pentapeptide insertion mutagenesis” (BMC Molecular Biology, 2009)
